Laboratory results taken from the supplement of paper PMC10567573.

B1: OR10K2 (parent)
chain: SLARLQQLLFVIFLLLYLFTLGTN

Variants of: B1
Test: protein stability index of a GFP-peptide fusion (GPS, HEK-293T) (PSI 1-6); higher = more stable
Conditions: c terminus: a fixed tail appended
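Note: lentivirally expressed fusions sorted by FACS into six bins by GFP to DsRed ratio, PSI derived from sequencing read proportions per bin multiplied by bin number.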

| Variant | protein stability index |
| --- | --- |
| SLARLQQLLFMIFLLLYLFTLGTN [V11M] | 3.05 |
| SLARLQQLLFHIFLLLYLFTLGTN [V11H] | 2.61 |
| SLARLQQLLFFIFLLLYLFTLGTN [V11F] | 2.58 |
| SLARLQQLLFTIFLLLYLFTLGTN [V11T] | 3.08 |
| SLARLQQLLFVIFLLLYLFTLWTN [G22W] | 2.11 |
| SLARLQQLLFVIFLLLYLFTLKTN [G22K] | 2.48 |
| SLARLQQLLFVIFLLLYLFTLHTN [G22H] | 2.3 |
| SLARLQQLLFVIFLLLYLFTLCTN [G22C] | 2.65 |
| SLARLQQLLFVIFLLLYLFTLNTN [G22N] | 3.78 |
| SLQRLQQLLFVIFLLLYLFTLGTN [A3Q] | 3.09 |
| SLLRLQQLLFVIFLLLYLFTLGTN [A3L] | 2.75 |
| SLKRLQQLLFVIFLLLYLFTLGTN [A3K] | 1.51 |
| SLGRLQQLLFVIFLLLYLFTLGTN [A3G] | 1.49 |
| SLTRLQQLLFVIFLLLYLFTLGTN [A3T] | 1.91 |
| SLNRLQQLLFVIFLLLYLFTLGTN [A3N] | 3.31 |
| SLWRLQQLLFVIFLLLYLFTLGTN [A3W] | 2.23 |
| SLMRLQQLLFVIFLLLYLFTLGTN [A3M] | 1.88 |
| SLFRLQQLLFVIFLLLYLFTLGTN [A3F] | 1.86 |
| SLARLQQLLFVIFLLYYLFTLGTN [L16Y] | 3.45 |
| SLARLQQLLFVIFLLSYLFTLGTN [L16S] | 3.14 |
| SLARLQQLLFVIFLLEYLFTLGTN [L16E] | 3.61 |
| SLARLQQLLFVIFLLTYLFTLGTN [L16T] | 3.42 |
| SLARLQQLLFVIFLLIYLFTLGTN [L16I] | 2.15 |
| GLARLQQLLFVIFLLLYLFTLGTN [S1G] | 2.86 |

| Variant | protein stability index |
| --- | --- |
| MLARLQQLLFVIFLLLYLFTLGTN [S1M] | 3.25 |
| VLARLQQLLFVIFLLLYLFTLGTN [S1V] | 2.31 |
| WLARLQQLLFVIFLLLYLFTLGTN [S1W] | 1.59 |
| QLARLQQLLFVIFLLLYLFTLGTN [S1Q] | 2.21 |
| RLARLQQLLFVIFLLLYLFTLGTN [S1R] | 2.11 |
| ALARLQQLLFVIFLLLYLFTLGTN [S1A] | 2.7 |
| HLARLQQLLFVIFLLLYLFTLGTN [S1H] | 2.88 |
| CLARLQQLLFVIFLLLYLFTLGTN [S1C] | 2.44 |
| ILARLQQLLFVIFLLLYLFTLGTN [S1I] | 2.21 |
| LLARLQQLLFVIFLLLYLFTLGTN [S1L] | 3.72 |
| YLARLQQLLFVIFLLLYLFTLGTN [S1Y] | 3.24 |
| TLARLQQLLFVIFLLLYLFTLGTN [S1T] | 2.85 |
| ELARLQQLLFVIFLLLYLFTLGTN [S1E] | 2.11 |
| NLARLQQLLFVIFLLLYLFTLGTN [S1N] | 2.38 |
| DLARLQQLLFVIFLLLYLFTLGTN [S1D] | 1.54 |
| PLARLQQLLFVIFLLLYLFTLGTN [S1P] | 2.46 |
| KLARLQQLLFVIFLLLYLFTLGTN [S1K] | 2.87 |
| SFARLQQLLFVIFLLLYLFTLGTN [L2F] | 2.52 |
| SAARLQQLLFVIFLLLYLFTLGTN [L2A] | 3.88 |
| SWARLQQLLFVIFLLLYLFTLGTN [L2W] | 1.88 |
| SKARLQQLLFVIFLLLYLFTLGTN [L2K] | 2.49 |
| SIARLQQLLFVIFLLLYLFTLGTN [L2I] | 3.49 |
| STARLQQLLFVIFLLLYLFTLGTN [L2T] | 2.59 |
| SMARLQQLLFVIFLLLYLFTLGTN [L2M] | 2.45 |

| Variant | protein stability index |
| --- | --- |
| SCARLQQLLFVIFLLLYLFTLGTN [L2C] | 2.55 |
| SEARLQQLLFVIFLLLYLFTLGTN [L2E] | 2.01 |
| SSARLQQLLFVIFLLLYLFTLGTN [L2S] | 2.94 |
| SDARLQQLLFVIFLLLYLFTLGTN [L2D] | 2.06 |
| SYARLQQLLFVIFLLLYLFTLGTN [L2Y] | 2.34 |
| SLARLQQLCFVIFLLLYLFTLGTN [L9C] | 3.51 |
| SLARLQQLKFVIFLLLYLFTLGTN [L9K] | 3.92 |
| SLARLQQLWFVIFLLLYLFTLGTN [L9W] | 2.84 |
| SLARLQQLPFVIFLLLYLFTLGTN [L9P] | 3.06 |
| SLARLQQLIFVIFLLLYLFTLGTN [L9I] | 2.15 |
| SLARLKQLLFVIFLLLYLFTLGTN [Q6K] | 3.25 |
| SLARLPQLLFVIFLLLYLFTLGTN [Q6P] | 1.38 |
| SLARLTQLLFVIFLLLYLFTLGTN [Q6T] | 2.68 |
| SLARLFQLLFVIFLLLYLFTLGTN [Q6F] | 2.72 |
| SLARLHQLLFVIFLLLYLFTLGTN [Q6H] | 2.35 |
| SLARLEQLLFVIFLLLYLFTLGTN [Q6E] | 3.01 |
| SLARLAQLLFVIFLLLYLFTLGTN [Q6A] | 2.61 |
| SLARLCQLLFVIFLLLYLFTLGTN [Q6C] | 2.58 |
| SLARLWQLLFVIFLLLYLFTLGTN [Q6W] | 2.2 |
| SLARLMQLLFVIFLLLYLFTLGTN [Q6M] | 2.94 |
| SLARLNQLLFVIFLLLYLFTLGTN [Q6N] | 2.84 |
| SLARLGQLLFVIFLLLYLFTLGTN [Q6G] | 2.56 |
| SLARLIQLLFVIFLLLYLFTLGTN [Q6I] | 2.84 |
| SLARLVQLLFVIFLLLYLFTLGTN [Q6V] | 2.45 |

| Variant | protein stability index |
| --- | --- |
| SLARLQQLLFVIFLLLYLFTLGTW [N24W] | 1.99 |
| SLARLQQLLFVIFLLLYLFTLGTF [N24F] | 2.87 |
| SLARLQQLLFVIFLLLYLFTLGTL [N24L] | 3.23 |
| SLARLQQLLFVIFLLLYLFTLGTA [N24A] | 2.11 |
| SLARLQQLLFVIFLLLYLFTLGTT [N24T] | 2.4 |
| SLARLQQLLFVIFLLLYLFTLGDN [T23D] | 1.44 |
| SLARLQQLLFVIFLLLYLFTLGHN [T23H] | 1.75 |
| SLARLQQLLFVIFLLLYLFTLGCN [T23C] | 4.22 |
| SLARLQQLLFVIFLLLYLFTLGRN [T23R] | 1.53 |
| SLARLQQLLFVIFLLLCLFTLGTN [Y17C] | 2.72 |
| SLARLQQLLFVIFLLLFLFTLGTN [Y17F] | 1.68 |
| SLARLQQLLFVIFLLLLLFTLGTN [Y17L] | 2.34 |
| SLARLQQLLFVIFLLLILFTLGTN [Y17I] | 3.43 |
| SLARLQQLLFVIFLLLVLFTLGTN [Y17V] | 1.57 |
| SLARLQQLLFVIFLLLYLFTVGTN [L21V] | 2.08 |
| SLARLQQLLFVIFLLLYLFTIGTN [L21I] | 2.08 |
| SLARLQQLLFVIFLLLYLFTYGTN [L21Y] | 1.62 |
| SLARLQQLLFVIFLLLYLFTSGTN [L21S] | 2.34 |
| SLARLQQLLFVIFLLLYLFTTGTN [L21T] | 3.5 |
| SLARLQQLLFVIFLLLYLFTNGTN [L21N] | 4.16 |
| SLARLQQLLFVIFLLLYLFTFGTN [L21F] | 3.52 |
| SLARLQQLLFVIFLLLYLFTCGTN [L21C] | 3.39 |
